Molecular target: syua_human SNCA (UniProt P37840)

effect of a mutation on the interaction: increasing interaction
Substance: Leucine-rich repeat serine/threonine-protein kinase 2 (Homo sapiens), Q5S007 G2019S

Reference: IntAct's records for PubMed 23183827
